Assay results: patent publication CN114369161A (HEFEN TIANKPORT IMMUNOLOGICAL DRUG CO LTD, dated 2022)

Columns and labels:
[1] = biological target: T1, MICA胞外区α3结构域Fc融合蛋白(MICAα3-Fc); assay: ELISA (legend of Fig. 2)
T1 construct: also called MICAα3-Fc融合蛋白; MICA α3结构域

MICA (CHO-K1-MICA细胞表达) = biological target: T2, MICA (CHO-K1-MICA细胞表达) (Homo sapiens (Human), UniProt Q29983 24-383); assay: flow cytometry (legend of Fig. 3)
T2 construct: also called MICA蛋白
T2 sequence: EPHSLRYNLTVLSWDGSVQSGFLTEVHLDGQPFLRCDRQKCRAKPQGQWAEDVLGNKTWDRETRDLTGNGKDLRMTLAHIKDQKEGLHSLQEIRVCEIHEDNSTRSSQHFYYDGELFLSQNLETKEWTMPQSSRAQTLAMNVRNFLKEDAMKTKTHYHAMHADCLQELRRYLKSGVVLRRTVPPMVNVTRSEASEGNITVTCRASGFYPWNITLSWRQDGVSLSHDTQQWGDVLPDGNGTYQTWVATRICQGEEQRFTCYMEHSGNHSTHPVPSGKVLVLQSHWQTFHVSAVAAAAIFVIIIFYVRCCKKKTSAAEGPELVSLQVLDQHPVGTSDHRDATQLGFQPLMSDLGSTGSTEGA

MICB (CHO-K1-MICB细胞表达) = biological target: T3, MICB (CHO-K1-MICB细胞表达) (Homo sapiens (Human), UniProt Q29980 23-382); assay: flow cytometry (legend of Fig. 4)
T3 chain: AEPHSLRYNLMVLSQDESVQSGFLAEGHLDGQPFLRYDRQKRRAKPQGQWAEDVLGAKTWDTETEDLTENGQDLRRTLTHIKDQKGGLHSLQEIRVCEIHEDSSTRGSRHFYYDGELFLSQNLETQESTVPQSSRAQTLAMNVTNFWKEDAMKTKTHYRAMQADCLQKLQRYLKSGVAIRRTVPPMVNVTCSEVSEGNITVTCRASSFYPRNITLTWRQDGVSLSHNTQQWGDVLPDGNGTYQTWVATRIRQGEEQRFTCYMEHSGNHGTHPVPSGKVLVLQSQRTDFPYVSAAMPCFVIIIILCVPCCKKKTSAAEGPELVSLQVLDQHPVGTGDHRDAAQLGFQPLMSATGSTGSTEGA

重组MICA胞外区Fc融合蛋白(MICA-Fc) = biological target: T4, 重组MICA胞外区Fc融合蛋白(MICA-Fc) (human); assay: ELISA, MICA-Fc coated at 1 μg/mL, HRP anti-mouse secondary
T4 construct: also called MICA-Fc融合蛋白; 人MICA

Measured: binding result

T1 sequence (chain, as listed by the source limits assumed): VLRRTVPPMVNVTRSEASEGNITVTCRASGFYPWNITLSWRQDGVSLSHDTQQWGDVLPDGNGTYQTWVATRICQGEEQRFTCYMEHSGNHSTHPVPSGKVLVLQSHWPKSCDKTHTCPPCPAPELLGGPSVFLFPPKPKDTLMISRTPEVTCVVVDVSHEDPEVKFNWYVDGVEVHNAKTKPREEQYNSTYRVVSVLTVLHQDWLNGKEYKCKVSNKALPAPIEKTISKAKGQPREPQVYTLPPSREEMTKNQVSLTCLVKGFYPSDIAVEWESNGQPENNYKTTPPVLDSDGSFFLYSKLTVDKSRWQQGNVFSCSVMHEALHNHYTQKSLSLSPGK

B1: MICA抗体(编号为11G3) (antibody, V domains shown)
VH: QIQLVQSGPELKKPGESVKISCKASGYTFTDYGINWVKQAPGKGLKWVGWINTYTGEPINADDFKGRFALSLETSANTAYLQINNLKNEDMATYFCTRLSTVAVGAWFEYWGQGTLVTVSA
VL: DVLMTQTPLSLPVSLGDQASISCRSSQNIVHSNGNTYLEWYLQKPGQSPKLLIYKVSNRFSGVPDRFSGSGSGTDFTLKISRVEAEDLGVYYCFQGSHVPTFGGGTKLEIK
notes: also called 鼠单抗; 本发明的抗体
binds: all assays above
